Experimental findings from patent publication US20260115256A1 (HANGZHOU SCIWIND BIOSCIENCES, published 2026) are described below.

*1 amine or outer side, *2 acyl side, *3 side chain or, on linkers, in order; H or OH if unused. Bridges are numbered along the chain shown (N, C = ends). Where no end group is shown, it is not given here. Side-chain parts run from the residue outwards. [ ]: non-standard residue; d: D form. The star is where a group is joined. C20 diacid = O=C(O)CCCCCCCCCCCCCCCCCCC(=O)*; C18 diacid = O=C(O)CCCCCCCCCCCCCCCCC(=O)*; γGlu = O=C(O)[C@H](CCC(=O)[*:2])N[*:1]; Hyp = O=C(O)[C@@H]1C[C@@H](O)CN1; hArg = N=C(N)NCCCC[C@H](N)C(=O)O; αMeP = C[C@@]1(C(=O)O)CCCN1; Orn = NCCC[C@H](N)C(=O)O; Dab = NCC[C@H](N)C(=O)O; Dap = NC[C@H](N)C(=O)O; AEEA = NCCOCCOCC(=O)O

This test deals with T1, human amylin receptor (AMY3) on CHO-K1/Ga15/AMY3 cells (human, UniProt P30988 25-474; O60896 24-148).
T1 sequence (looked up) 1: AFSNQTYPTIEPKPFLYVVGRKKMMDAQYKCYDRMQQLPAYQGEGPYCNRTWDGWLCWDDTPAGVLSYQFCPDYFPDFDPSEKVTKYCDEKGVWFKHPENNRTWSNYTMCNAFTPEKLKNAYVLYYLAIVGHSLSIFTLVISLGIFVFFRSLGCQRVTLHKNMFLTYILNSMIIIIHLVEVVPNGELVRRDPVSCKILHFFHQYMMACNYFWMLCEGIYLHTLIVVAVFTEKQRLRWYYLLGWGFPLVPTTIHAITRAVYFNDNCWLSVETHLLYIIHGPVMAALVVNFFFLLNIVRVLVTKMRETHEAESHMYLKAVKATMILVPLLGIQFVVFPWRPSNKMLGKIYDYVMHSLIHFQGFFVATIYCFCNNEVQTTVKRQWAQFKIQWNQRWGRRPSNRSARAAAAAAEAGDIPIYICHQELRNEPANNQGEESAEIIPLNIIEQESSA
T1 sequence (looked up) 2: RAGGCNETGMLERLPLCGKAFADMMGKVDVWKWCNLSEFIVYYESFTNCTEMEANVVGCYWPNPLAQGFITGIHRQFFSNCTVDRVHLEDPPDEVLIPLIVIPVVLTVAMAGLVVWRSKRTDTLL
As to the kind of experiment: cell-based or functional assay.

With RCNTATCATQRLAEFLRHSSNNLK([AEEA-AEEA-γGlu-C20 diacid])PILPPTNVGSNTP-NH2 (disulfide 2-7 (inferred)) [PD004], the “EC50, CRE-luciferase assay” value was determined as 102 pM.
Turning to RCNTATCATQRLAEFLRHSSK([γGlu-C20 diacid])NLGPILPPTNVGSNTP-NH2 (disulfide 2-7 (inferred)) [PD006], the “EC50, CRE-luciferase assay” value was found to be 129 pM.
Turning to RCNTATCATQRLADFLRHSSNNK([AEEA-AEEA-γGlu-C18 diacid])GPILPPTNVGSNT[Hyp]-NH2 (disulfide 2-7 (inferred)) [PD085], the “EC50, CRE-luciferase assay” value turned out to be 5 pM.
Consider RCNTATCATQRLAEFLRHSSNK([γGlu-C20 diacid])LGPILPPTNVGSNTP-NH2 (disulfide 2-7 (inferred)) [PD007], for which the “EC50, CRE-luciferase assay” value turned out to be 205 pM.
[Orn]CNTATCATQRLADFLRHSSNNLK([γGlu-C20 diacid])PILPPTNVGSNT[Hyp]-NH2 (disulfide 2-7 (inferred)) [PD075]: the “EC50, CRE-luciferase assay” value is 48 pM.
Regarding RCNTATCATQRLADFLRHSSNK([γGlu-C18 diacid])LGPILPPTNVGSNT[Hyp]-NH2 (disulfide 2-7 (inferred)) [PD088], the “EC50, CRE-luciferase assay” value was found to be 13 pM.
For RCNTATCATQRLADFLRHSSNK([γGlu-C20 diacid])LGPILPPTNVGSNT[Hyp]-NH2 (disulfide 2-7 (inferred)) [PD086], the “EC50, CRE-luciferase assay” value is 33 pM.
Under {C20 diacid-γGlu}-KCNTATCATQRLADFLRHSSNNLGPILPPTNVGSNT[Hyp]-NH2 (disulfide 2-7 (inferred)) [PD069] stands 39 pM; under RCNTATCATQRLADFLRHSSK([AEEA-AEEA-γGlu-C18 diacid])NLGPILPPTNVGSNT[Hyp]-NH2 (disulfide 2-7 (inferred)) [PD093], 19 pM.
For the molecule RCNTATCATQRLADFLRHSSK([γGlu-C20 diacid])NLGPILPPTNVGSNT[Hyp]-NH2 (disulfide 2-7 (inferred)) [PD090], the “EC50, CRE-luciferase assay” value was found to be 31 pM.
Under DCNTATCATQRLADFLRHSSNNLK([γGlu-C20 diacid])PILPPTNVGSNT[Hyp]-NH2 (disulfide 2-7 (inferred)) [PD079] stands 131 pM.
Turning to K([γGlu-C20 diacid])CNTATCATQRLADFLRHSSNNFGPILPPTNVGSNT[Hyp]-NH2 (disulfide 2-7 (inferred)) [PD068], the “EC50, CRE-luciferase assay” value stood at 32 pM.
As to RCNTATCATQRLADFLRHSSNNLK([AEEA-AEEA-γGlu-C20 diacid])PILPPTNVGSNT[Hyp]-NH2 (disulfide 2-7 (inferred)) [PD081], the “EC50, CRE-luciferase assay” value worked out at 31 pM.
For the molecule ECNTATCATQRLADFLRHSSNNLK([γGlu-C20 diacid])PILPPTNVGSNT[Hyp]-NH2 (disulfide 2-7 (inferred)) [PD080], the “EC50, CRE-luciferase assay” value stood at 110 pM.
Take K([γGlu-C20 diacid])CNTATCATQRLAEFLRHSSNNFGPILPPTNVGSNTP-NH2 (ends and bridges not checked) [PD066]: the “EC50, CRE-luciferase assay” value came out at 44 pM.
Take RCNTATCATQRLADFLRHSSNNK([γGlu-C20 diacid])GPILPPTNVGSNT[Hyp]-NH2 (disulfide 2-7 (inferred)) [PD082]: the “EC50, CRE-luciferase assay” value worked out at 38 pM.
On to RCNTATCATQRLADFLRHSK([γGlu-C20 diacid])NNLGPILPPTNVGSNT[Hyp]-NH2 (disulfide 2-7 (inferred)) [PD094], for which the “EC50, CRE-luciferase assay” value came out at 34 pM.
Consider HCNTATCATQRLADFLRHSSNNLK([γGlu-C20 diacid])PILPPTNVGSNT[Hyp]-NH2 (disulfide 2-7 (inferred)) [PD078], for which the “EC50, CRE-luciferase assay” value came out at 35 pM.
Under RCNTATCATQRLADFLRHSSNK([AEEA-AEEA-γGlu-C20 diacid])LGPILPPTNVGSNT[Hyp]-NH2 (disulfide 2-7 (inferred)) [PD087] stands 32 pM; under RCNTATCATQRLADFLRHSSNNK([γGlu-C18 diacid])GPILPPTNVGSNT[Hyp]-NH2 (disulfide 2-7 (inferred)) [PD084], 8 pM; under K([γGlu-C20 diacid])CNTATCATQRLADFLRHSSNNLGPILPPTNVGSNT[Hyp]-NH2 (disulfide 2-7 (inferred)) [PD070], 38 pM.
Turning to [hArg]CNTATCATQRLADFLRHSSNNLK([γGlu-C20 diacid])PILPPTNVGSNT[Hyp]-NH2 (disulfide 2-7 (inferred)) [PD077], the “EC50, CRE-luciferase assay” value worked out at 34 pM.
Under [Dab]CNTATCATQRLADFLRHSSNNLK([γGlu-C20 diacid])PILPPTNVGSNT[Hyp]-NH2 (disulfide 2-7 (inferred)) [PD074] stands 66 pM; under RCNTATCATQRLADFLRHSSNNK([AEEA-AEEA-γGlu-C20 diacid])GPILPPTNVGSNT[Hyp]-NH2 (disulfide 2-7 (inferred)) [PD083], 37 pM; under [Dap]CNTATCATQRLADFLRHSSNNLK([γGlu-C20 diacid])PILPPTNVGSNT[Hyp]-NH2 (disulfide 2-7 (inferred)) [PD073], 63 pM.
Then RCNTATCATQRLADFLRHSSNNLK([γGlu-C20 diacid])PILPPTNVGSNT[αMeP]-NH2 (disulfide 2-7 (inferred)) [PD064], with 55 pM; and {C20 diacid-γGlu}-KCNTATCATQRLADFLRHSSNNFGPILPPTNVGSNT[Hyp]-NH2 (disulfide 2-7 (inferred)) [PD067], with 34 pM; and RCNTATCATQRLADFLRHSSK([γGlu-C18 diacid])NLGPILPPTNVGSNT[Hyp]-NH2 (disulfide 2-7 (inferred)) [PD092], with 16 pM.
In the case of K([γGlu-C20 diacid])CNTATCATQRLADFLRHSSNNLKPILPPTNVGSNT[Hyp]-NH2 (disulfide 2-7 (inferred)) [PD072], the “EC50, CRE-luciferase assay” value is 27 pM.
Take KCNTATCATQRLADFLRHSSNNLK([γGlu-C20 diacid])PILPPTNVGSNT[Hyp]-NH2 (disulfide 2-7 (inferred)) [PD076]: the “EC50, CRE-luciferase assay” value worked out at 40 pM.
Then {C20 diacid-γGlu}-KCNTATCATQRLADFLRHSSNNLKPILPPTNVGSNT[Hyp]-NH2 (disulfide 2-7 (inferred)) [PD071], with 28 pM.
For RCNTATCATQRLADFLRHSSNK([AEEA-AEEA-γGlu-C18 diacid])LGPILPPTNVGSNT[Hyp]-NH2 (disulfide 2-7 (inferred)) [PD089], the “EC50, CRE-luciferase assay” value was determined as 18 pM.
On to RCNTATCATQRLAEFLRHSSNNLK([γGlu-C20 diacid])PILPPTNVGSNT[αMeP]-NH2 (disulfide 2-7 (inferred)) [PD063], for which the “EC50, CRE-luciferase assay” value came to 101 pM.
Under RCNTATCATQRLADFLRHSSK([AEEA-AEEA-γGlu-C20 diacid])NLGPILPPTNVGSNT[Hyp]-NH2 (disulfide 2-7 (inferred)) [PD091] stands 30 pM.
